Source: publication PMC7990223

Experiments:
human ACE2 (human) = human ACE2 (human) (UniProt Q9BYF1); assay: flow cytometry on cells
mouse ACE2 (mouse) = mouse ACE2 (mouse) (UniProt Q8R0I0); assay: flow cytometry on cells
Sequence of mouse ACE2 (mouse) (Q8R0I0 18-805): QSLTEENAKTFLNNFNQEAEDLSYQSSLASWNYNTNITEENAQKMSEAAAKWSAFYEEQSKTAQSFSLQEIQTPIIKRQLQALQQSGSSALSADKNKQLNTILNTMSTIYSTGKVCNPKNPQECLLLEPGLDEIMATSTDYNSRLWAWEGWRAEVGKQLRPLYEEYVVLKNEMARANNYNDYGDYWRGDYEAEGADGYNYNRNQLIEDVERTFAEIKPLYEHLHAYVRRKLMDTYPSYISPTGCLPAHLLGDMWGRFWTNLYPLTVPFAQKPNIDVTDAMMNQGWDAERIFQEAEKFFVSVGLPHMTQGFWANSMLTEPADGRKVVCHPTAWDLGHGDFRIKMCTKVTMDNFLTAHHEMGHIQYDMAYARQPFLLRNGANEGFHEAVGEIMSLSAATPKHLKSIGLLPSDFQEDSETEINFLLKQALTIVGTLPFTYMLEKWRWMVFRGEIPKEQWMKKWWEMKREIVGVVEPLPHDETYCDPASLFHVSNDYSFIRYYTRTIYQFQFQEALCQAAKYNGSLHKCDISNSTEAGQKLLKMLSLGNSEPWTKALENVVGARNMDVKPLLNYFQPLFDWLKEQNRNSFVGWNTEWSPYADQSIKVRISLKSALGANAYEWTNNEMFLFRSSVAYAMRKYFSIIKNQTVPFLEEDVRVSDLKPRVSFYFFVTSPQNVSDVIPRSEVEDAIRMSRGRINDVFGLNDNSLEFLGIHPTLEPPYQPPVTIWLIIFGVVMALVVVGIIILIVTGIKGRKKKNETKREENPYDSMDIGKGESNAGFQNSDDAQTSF

Sequence of human ACE2 (human) (Q9BYF1 18-805): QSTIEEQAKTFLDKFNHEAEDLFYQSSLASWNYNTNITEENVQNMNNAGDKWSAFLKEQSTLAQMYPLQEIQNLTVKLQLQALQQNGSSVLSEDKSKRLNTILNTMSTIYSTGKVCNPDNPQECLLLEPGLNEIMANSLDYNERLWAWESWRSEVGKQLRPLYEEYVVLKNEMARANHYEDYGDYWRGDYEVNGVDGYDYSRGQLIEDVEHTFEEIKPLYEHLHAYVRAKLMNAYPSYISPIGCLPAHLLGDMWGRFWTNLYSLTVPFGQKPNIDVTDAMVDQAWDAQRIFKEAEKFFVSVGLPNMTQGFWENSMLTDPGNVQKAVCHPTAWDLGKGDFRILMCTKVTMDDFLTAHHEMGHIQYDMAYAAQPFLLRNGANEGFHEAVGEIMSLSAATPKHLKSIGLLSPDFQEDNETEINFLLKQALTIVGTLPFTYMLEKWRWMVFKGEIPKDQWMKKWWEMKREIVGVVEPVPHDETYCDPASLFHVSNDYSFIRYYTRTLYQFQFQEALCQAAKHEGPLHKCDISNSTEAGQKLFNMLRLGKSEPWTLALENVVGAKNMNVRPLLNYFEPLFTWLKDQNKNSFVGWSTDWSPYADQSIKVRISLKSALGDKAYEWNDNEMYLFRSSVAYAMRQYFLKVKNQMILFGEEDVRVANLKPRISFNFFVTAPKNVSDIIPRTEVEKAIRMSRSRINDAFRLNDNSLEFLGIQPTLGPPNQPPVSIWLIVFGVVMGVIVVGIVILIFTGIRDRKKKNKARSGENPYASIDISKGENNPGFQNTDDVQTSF

Substance: S1 domain of the SARS-CoV spike protein C-terminally fused with Fc (from UniProt P59594 14-667) (Fc fusion)
- percent of ACE2-expressing (zsGreen1+) cells positive for S1-Fc (human ACE2 (human)): 64%
- percent of ACE2-expressing (zsGreen1+) cells positive for S1-Fc (mouse ACE2 (mouse)): 40.4%
